Laboratory results as given in the supplement of paper PMC5998384.

Tests used:
HeLa Kyoto [1] = test: melting temperature (median over replicates), in situ; higher = more thermally stable
HeLa Kyoto [2] = test: solubility change mitosis vs G1/S (difference of NP-40 vs SDS log2 ratios) (log2 ratio difference); higher = more soluble in mitosis
HeLa Kyoto [3] = test: solubility in G1/S (NP-40 vs SDS abundance) (log2 ratio); higher = more soluble; conditions: cell cycle stage: G1/S
HeLa Kyoto [4] = test: thermal stability score vs G1/S (z-score of summed log2 fold changes over temperatures); higher = more thermally stable than in G1/S
[5] = cell cycle stage: early G1 (4.5 h after nocodazole release)
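For melting temperature (median over replicates), in situ in this document: HeLa Kyoto cells synchronized by double thymidine or nocodazole block, proteins quantified by TMT10plex mass spectrometry, three independent biological replicates.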
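For solubility change mitosis vs G1/S (difference of NP-40 vs SDS log2 ratios) in this document: synchronized HeLa Kyoto cells (double thymidine block for G1/S, nocodazole release for mitosis), protein amounts in NP-40 versus SDS lysates quantified by mass spectrometry, three biological replicates.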
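For solubility in G1/S (NP-40 vs SDS abundance) in this document: HeLa Kyoto cells arrested at G1/S by double thymidine block, proteins quantified by TMT10plex mass spectrometry in mild NP-40 versus SDS extracts, three biological replicates.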
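For thermal stability score vs G1/S (z-score of summed log2 fold changes over temperatures) in this document: synchronized HeLa Kyoto cells, proteins quantified by TMT10plex mass spectrometry, three biological replicates, mitosis taken 0.5 h after nocodazole release, G1/S directly after double thymidine block.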

| Substance | melting temperature (HeLa Kyoto [1]; cell cycle stage: G1/S) | melting temperature (HeLa Kyoto [1]; cell cycle stage: mitosis) | solubility change mitosis (log2) (HeLa Kyoto [2]) | solubility in G1/S (log2) (HeLa Kyoto [3]) | thermal stability score (HeLa Kyoto [4]; [5]) | thermal stability score (HeLa Kyoto [4]; cell cycle stage: mitosis) |
| --- | --- | --- | --- | --- | --- | --- |
| MSPTPPLFSLPEARTRFTKSTREALNNKNIKPLLSTFSQVPGSENEKKCTLDQAFRGILEEEIINHSSCENVLAIISLAIGGVTEGICTASTPFVLLGDVLDCLPLDQCDTIFTFVEKNVATWKSNTFYSAGKNYLLRMCNDLLRRLSKSQNTVFCGRIQLFLARLFPLSEKSGLNLQSQFNLENVTVFNTNEQESTLGQKHTEDREEGMDVEEGEMGDEEAPTTCSIPIDYNLYRKFWSLQDYFRNPVQCYEKISWKTFLKYSEEVLAVFKSYKLDDTQASRKKMEELKTGGEHVYFAKFLTSEKLMDLQLSDSNFRRHILLQYLILFQYLKGQVKFKSSNYVLTDEQSLWIEDTTKSVYQLLSENPPDGERFSKMVEHILNTEENWNSWKNEGCPSFVKERTSDTKPTRIIRKRTAPEDFLGKGPTKKILMGNEELTRLWNLCPDNMEACKSETREHMPTLEEFFEEAIEQADPENMVENEYKAVNNSNYGWRALRLLARRSPHFFQPTNQQFKSLPEYLENMVIKLAKELPPPSEEIKTGEDEDEEDNDALLKENESPDVRRDKPVTGEQIEVFANKLGEQWKILAPYLEMKDSEIRQIECDSEDMKMRAKQLLVAWQDQEGVHATPENLINALNKSGLSDLAESLTNDNETNS [THOC1] | 49.7 °C | 49.5 °C | 0.218 | -0.2 | 0.442 | 3.3 |
| MGLETEKADVQLFMDDDSYSHHSGLEYADPEKFADSDQDRDPHRLNSHLKLGFEDVIAEPVTTHSFDKVWICSHALFEISKYVMYKFLTVFLAIPLAFIAGILFATLSCLHIWILMPFVKTCLMVLPSVQTIWKSVTDVIIAPLCTSVGRCFSSVSLQLSQD [CAV2] | 56.1 °C | 56.9 °C | -0.0267 | -0.178 | -1.45 | -2.03 |
| MPLLTQQIQDEDDQYSLVASLDNVRNLSTILKAIHFREHATCFATKNGIKVTVENAKCVQANAFIQAGIFQEFKVQEESVTFRINLTVLLDCLSIFGSSPMPGTLTALRMCYQGYGYPLMLFLEEGGVVTVCKINTQEPEETLDFDFCSTNVINKIILQSEGLREAFSELDMTSEVLQITMSPDKPYFRLSTFGNAGSSHLDYPKDSDLMEAFHCNQTQVNRYKISLLKPSTKALVLSCKVSIRTDNRGFLSLQYMIRNEDGQICFVEYYCCPDEEVPESES [RAD1] | 51.4 °C | 51.2 °C | -0.225 | -0.0871 | 2.13 | 0.628 |
| MSGWADERGGEGDGRIYVGNLPTDVREKDLEDLFYKYGRIREIELKNRHGLVPFAFVRFEDPRDAEDAIYGRNGYDYGQCRLRVEFPRTYGGRGGWPRGGRNGPPTRRSDFRVLVSGLPPSGSWQDLKDHMREAGDVCYADVQKDGVGMVEYLRKEDMEYALRKLDDTKFRSHEGETSYIRVYPERSTSYGYSRSRSGSRGRDSPYQSRGSPHYFSPFRPY [SRSF9] | 50 °C | 50.6 °C | 0.706 | -0.159 | -3.88 | -3.72 |
| NFIC | 56.8 °C | 57.3 °C | 0.0157 | 0.109 | -1.32 | 2.11 |
| MYATDSRGHSPAFLQPQNGNSRHPSGYVPGKVVPLRPPPPPKSQASAKFTSIRREDRATFAFSPEEQQAQRESQKQKRHKNTFICFAITSFSFFIALAIILGISSKYAPDENCPDQNPRLRNWDPGQDSAKQVVIKEGDMLRLTSDATVHSIVIQDGGLLVFGDNKDGSRNITLRTHYILIQDGGALHIGAEKCRYKSKATITLYGKSDEGESMPTFGKKFIGVEAGGTLELHGARKASWTLLARTLNSSGLPFGSYTFEKDFSRGLNVRVIDQDTAKILESERFDTHEYRNESRRLQEFLRFQDPGRIVAIAVGDSAAKSLLQGTIQMIQERLGSELIQGLGYRQAWALVGVIDGGSTSCNESVRNYENHSSGGKALAQREFYTVDGQKFSVTAYSEWIEGVSLSGFRVEVVDGVKLNLLDDVSSWKPGDQIVVASTDYSMYQAEEFTLLPCSECSHFQVKVKETPQFLHMGEIIDGVDMRAEVGILTRNIVIQGEVEDSCYAENQCQFFDYDTFGGHIMIMKNFTSVHLSYVELKHMGQQQMGRYPVHFHLCGDVDYKGGYRHATFVDGLSIHHSFSRCITVHGTNGLLIKDTIGFDTLGHCFFLEDGIEQRNTLFHNLGLLTKPGTLLPTDRNNSMCTTMRDKVFGNYIPVPATDCMAVSTFWIAHPNNNLINNAAAGSQDAGIWYLFHKEPTGESSGLQLLAKPELTPLGIFYNNRVHSNFKAGLFIDKGVKTTNSSAADPREYLCLDNSARFRPHQDANPEKPRVAALIDRLIAFKNNDNGAWVRGGDIIVQNSAFADNGIGLTFASDGSFPSDEGSSQEVSESLFVGESRNYGFQGGQNKYVGTGGIDQKPRTLPRNRTFPIRGFQIYDGPIHLTRSTFKKYVPTPDRYSSAIGFLMKNSWQITPRNNISLVKFGPHVSLNVFFGKPGPWFEDCEMDGDKNSIFHDIDGSVTGYKDAYVGRMDNYLIRHPSCVNVSKWNAVICSGTYAQVYVQTWSTQNLSMTITRDEYPSNPMVLRGINQKAAFPQYQPVVMLEKGYTIHWNGPAPRTTFLYLVNFNKNDWIRVGLCYPSNTSFQVTFGYLQRQNGSLSKIEEYEPVHSLEELQRKQSERKFYFDSSTGLLFLYLKAKSHRHGHSYCSSQGCERVKIQAATDSKDISNCMAKAYPQYYRKPSVVKRMPAMLTGLCQGCGTRQVVFTSDPHKSYLPVQFQSPDKAETQRGDPSVISVNGTDFTFRSAGVLLLVVDPCSVPFRLTEKTVFPLADVSRIEEYLKTGIPPRSIVLLSTRGEIKQLNISHLLVPLGLAKPAHLYDKGSTIFLGFSGNFKPSWTKLFTSPAGQGLGVLEQFIPLQLDEYGCPRATTVRRRDLELLKQASKAH [TMEM2] | 55.3 °C | 55.5 °C | -0.018 | 0.114 | -1.5 | -0.419 |
| MATKGGTVKAASGFNAMEDAQTLRKAMKGLGTDEDAIISVLAYRNTAQRQEIRTAYKSTIGRDLIDDLKSELSGNFEQVIVGMMTPTVLYDVQELRRAMKGAGTDEGCLIEILASRTPEEIRRISQTYQQQYGRSLEDDIRSDTSFMFQRVLVSLSAGGRDEGNYLDDALVRQDAQDLYEAGEKKWGTDEVKFLTVLCSRNRNHLLHVFDEYKRISQKDIEQSIKSETSGSFEDALLAIVKCMRNKSAYFAEKLYKSMKGLGTDDNTLIRVMVSRAEIDMLDIRAHFKRLYGKSLYSFIKGDTSGDYRKVLLVLCGGDD [ANXA4] | 50.1 °C | 50.2 °C | 0.0251 | 0.48 | 5.77 | 4.03 |
| MAVSAGSARTSPSSDKVQKDKAELISGPRQDSRIGKLLGFEWTDLSSWRRLVTLLNRPTDPASLAVFRFLFGFLMVLDIPQERGLSSLDRKYLDGLDVCRFPLLDALRPLPLDWMYLVYTIMFLGALGMMLGLCYRISCVLFLLPYWYVFLLDKTSWNNHSYLYGLLAFQLTFMDANHYWSVDGLLNAHRRNAHVPLWNYAVLRGQIFIVYFIAGVKKLDADWVEGYSMEYLSRHWLFSPFKLLLSEELTSLLVVHWGGLLLDLSAGFLLFFDVSRSIGLFFVSYFHCMNSQLFSIGMFSYVMLASSPLFCSPEWPRKLVSYCPRRLQQLLPLKAAPQPSVSCVYKRSRGKSGQKPGLRHQLGAAFTLLYLLEQLFLPYSHFLTQGYNNWTNGLYGYSWDMMVHSRSHQHVKITYRDGRTGELGYLNPGVFTQSRRWKDHADMLKQYATCLSRLLPKYNVTEPQIYFDIWVSINDRFQQRIFDPRVDIVQAAWSPFQRTSWVQPLLMDLSPWRAKLQEIKSSLDNHTEVVFIADFPGLHLENFVSEDLGNTSIQLLQGEVTVELVAEQKNQTLREGEKMQLPAGEYHKVYTTSPSPSCYMYVYVNTTELALEQDLAYLQELKEKVENGSETGPLPPELQPLLEGEVKGGPEPTPLVQTFLRRQQRLQEIERRRNTPFHERFFRFLLRKLYVFRRSFLMTCISLRNLILGRPSLEQLAQEVTYANLRPFEAVGELNPSNTDSSHSNPPESNPDPVHSEF [GGCX] | 53 °C | 53.1 °C | -0.054 | 0.0675 | -1.48 | -3.01 |
